Source: the supplement of paper PMC9732359
± gives the uncertainty stated by the source.

Assay: protein stability index of a GFP-peptide fusion (yeast GPS) (PSI 1-4); higher = more stable; sorted into four equal gates, so the index is relative within each strain
Procedure, shortened: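 Each library plasmid carries Cherry plus GFP with a tiled 17-residue yeast protein peptide fused downstream, and the pooled library was carried in yeast. Mid-log cultures in leucine-free medium were sorted into four equal gates by GFP/Cherry ratio. Reads from Illumina sequencing of PCR-amplified plasmids from each gate were assigned to strains by barcodes. Per peptide, the protein stability index was computed as the summed products of gate read frequency and gate number.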

| Sequence | protein stability index (doa10∆) | protein stability index (pdr5∆) | protein stability index (san1∆) | protein stability index (ubr1∆) |
| --- | --- | --- | --- | --- |
| TFTKKCLENARSQISEK [SIR4] | 3.2 ± 0.063 | 3.12 ± 0.057 | 3.15 ± 0.05 | 3.07 ± 0.041 |
| TGESEESSSEDDYEDQD [IRR1] | 3.5 ± 0.17 | 3.34 ± 0.16 | – | 3.57 ± 0.26 |
| TGETYQRFVGHKSDVMS [ASC1] | 2.73 ± 0.14 | 3.09 ± 0.069 | 2.6 ± 0.096 | 2.94 ± 0.093 |
| TGKIVDVVGTLSRNGKP [FAS1] | 3.33 ± 0.15 | 3.6 ± 0.13 | 3.48 ± 0.094 | 3.44 ± 0.071 |
| TGLCSFDYSVILNSIPA [YJL039C/NUP192] | 1.6 ± 0.052 | 1.51 ± 0.059 | 1.49 ± 0.095 | 1.28 ± 0.045 |
| TGLNGSGKSNILDAICF [SMC2] | 3.4 ± 0.12 | 2.98 ± 0.093 | 3.28 ± 0.063 | 3.31 ± 0.054 |
| TGNFIIPSGNVWNYTFM [PRP8] | 3.05 ± 0.095 | 2.95 ± 0.12 | 2.88 ± 0.077 | 3.18 ± 0.12 |
| TGNNLYDRNSNNNHKDK [SWI1] | 3.03 ± 0.049 | 3.12 ± 0.051 | 2.89 ± 0.06 | 3.12 ± 0.039 |
| TGSIRHRLKLCKSLISE [CSE2] | 3.49 ± 0.29 | – | – | – |
| TGVVYNVTKSSVGVIIN [RPL21A] | 2.07 ± 0.09 | 2.6 ± 0.057 | 1.95 ± 0.095 | 2.18 ± 0.067 |
| TGWISKCTAEGIKVSLL [RPC25] | 2.9 ± 0.14 | 3.12 ± 0.15 | 2.66 ± 0.08 | 2.95 ± 0.15 |
| THAQRTGLSQIPNRRFT [PRP8] | 2.8 ± 0.048 | 2.62 ± 0.047 | 2.83 ± 0.048 | 2.88 ± 0.043 |
| THLEIEPFTILGAVAGL [RET1] | 1.42 ± 0.041 | 1.91 ± 0.054 | 2.08 ± 0.12 | 2.04 ± 0.048 |
| THPHAADGSSYMEQGNN [SKI6] | 3.05 ± 0.073 | 3.2 ± 0.063 | 3.02 ± 0.052 | 3.07 ± 0.047 |
| TIIFIDELDAIGTKRFD [RPT5] | 2.75 ± 0.069 | 2.33 ± 0.045 | 2.5 ± 0.075 | 2.42 ± 0.059 |
| TILCTPTGGKAKLSEGT [RPS27A] | 2.83 ± 0.097 | 2.85 ± 0.1 | 3.12 ± 0.072 | 2.74 ± 0.056 |
| TINEMMKHLGRSEGNPV [FAS2] | 2.5 ± 0.09 | 2.76 ± 0.064 | 2.53 ± 0.066 | 2.94 ± 0.072 |
| TISILAAPSGNYKQLTL [RRP43] | 1.77 ± 0.035 | 1.94 ± 0.032 | 1.92 ± 0.058 | 1.89 ± 0.033 |
| TITNSSSSSDIIVPDLI [YML103C/NUP188] | 2.87 ± 0.081 | 3.07 ± 0.052 | 2.83 ± 0.061 | 3.05 ± 0.056 |
| TIWCVCDSYLDADKELS [BRR2] | 2.39 ± 0.059 | 2.44 ± 0.07 | 2.92 ± 0.057 | 2.75 ± 0.072 |
| TIYYVDSDGTRLKGDIF [PRE2] | 3.24 ± 0.067 | 3.24 ± 0.065 | 2.97 ± 0.096 | 3.16 ± 0.057 |
| TKAQQKTAEQIAAERAA [RPL7B] | 2.81 ± 0.17 | – | 3.07 ± 0.13 | – |
| TKENLEVSGENVVEADL [QCR2] | 3.33 ± 0.27 | 3.6 ± 0.09 | 3.52 ± 0.1 | 2.8 ± 0.14 |
| TKFSKLIGRPPLLVPGM [FAS1] | 1.16 ± 0.071 | 2 ± 0.064 | 1.91 ± 0.078 | 1.65 ± 0.041 |
| TKHLMPQDLTFNAGSNP [RPB7] | – | 3.62 ± 0.2 | 3.22 ± 0.26 | 2.79 ± 0.24 |
| TKKSKLESTKAETDYVD [DSN1] | 2.58 ± 0.073 | 2.9 ± 0.069 | 2.73 ± 0.087 | 3.03 ± 0.059 |

| Sequence | protein stability index (doa10∆) | protein stability index (pdr5∆) | protein stability index (san1∆) | protein stability index (ubr1∆) |
| --- | --- | --- | --- | --- |
| TKLYFDVNEKIRFRIER [RPC25] | 2.97 ± 0.11 | 2.92 ± 0.097 | 2.81 ± 0.084 | 2.92 ± 0.17 |
| TKMFEDRREKAERTMSK [SMC2] | 3.4 ± 0.14 | 3.37 ± 0.1 | 3.22 ± 0.086 | 3.54 ± 0.088 |
| TKSSLNDLDYDLIADTI [YML103C/NUP188] | 2.64 ± 0.07 | 2.48 ± 0.057 | 2.27 ± 0.067 | 2.52 ± 0.053 |
| TKTILSGTDGSTIGILL [SRP72] | 3 ± 0.064 | 2.81 ± 0.062 | 3.06 ± 0.084 | 3.01 ± 0.065 |
| TLENTLKAAFVAIGNTY [RPS2] | 1.86 ± 0.16 | 1.9 ± 0.11 | 1.72 ± 0.14 | 1.94 ± 0.091 |
| TLFCCLLRSRLATRRVL [RPO21] | 1.31 ± 0.068 | 1.22 ± 0.06 | 1.15 ± 0.15 | 1.2 ± 0.05 |
| TLKNRGLPLGIAEEKMW [YGR119C/NUP57] | 1.8 ± 0.078 | 1.7 ± 0.078 | 1.44 ± 0.29 | 1.89 ± 0.039 |
| TLSNAERAKNVNGLLQV [GAL11] | 3.22 ± 0.14 | 3.23 ± 0.1 | 3.08 ± 0.26 | 3 ± 0.098 |
| TLSPNVTDSSLLKLLTR [GRR1] | 2.89 ± 0.062 | 2.99 ± 0.07 | 2.83 ± 0.043 | 2.82 ± 0.042 |
| TLTKISMLFKTSQKMTS [MCD1] | 1.92 ± 0.082 | 2.83 ± 0.16 | 2.45 ± 0.13 | 3.53 ± 0.19 |
| TLVNKSTGLKNASDALK [RPS1B] | 2.87 ± 0.11 | 3.2 ± 0.11 | 3.4 ± 0.092 | 3.24 ± 0.075 |
| TMIKKTTLVTRREELQQ [SMC3] | 2.88 ± 0.13 | 2.94 ± 0.11 | 3.1 ± 0.16 | 2.55 ± 0.18 |
| TMMTVEEKPDVTYSDVG [RPT1] | 2.58 ± 0.1 | 2.42 ± 0.068 | 1.83 ± 0.14 | 2.3 ± 0.055 |
| TMRKISSETDDDHSQVI [DSN1] | 2.91 ± 0.048 | 3.24 ± 0.064 | 3.1 ± 0.035 | 3.15 ± 0.055 |
| TMYMEVYTAIYNYCVNK [CDC53] | 1.63 ± 0.047 | 1.55 ± 0.047 | 1.51 ± 0.061 | 1.7 ± 0.031 |
| TNFKEEITDASLNLQYV [YML103C/NUP188] | 3.08 ± 0.12 | 3.06 ± 0.084 | 3.18 ± 0.13 | 3.06 ± 0.087 |
| TNHVLEVFSVLGIEAAR [RPO31] | 2.21 ± 0.19 | 2.4 ± 0.11 | 2.77 ± 0.076 | 3.02 ± 0.24 |
| TNILTKVDINADSAVNR [PRP28] | 3.37 ± 0.062 | 3.4 ± 0.074 | 3.3 ± 0.055 | 3.31 ± 0.059 |
| TNKDNKAELIKPIQNGE [ARP9] | 3.34 ± 0.071 | 3.14 ± 0.083 | 3.4 ± 0.046 | 3.16 ± 0.072 |
| TNLGQPHSLATKTTGKC [RPS2] | 2.44 ± 0.13 | 2.69 ± 0.13 | 2.38 ± 0.088 | 2.5 ± 0.11 |
| TNLSGGEKTLSSLALVF [SMC4] | 3.34 ± 0.083 | 3.2 ± 0.097 | 3.04 ± 0.25 | 3.37 ± 0.054 |
| TNNMEKIIEDLRQKHEF [SMC2] | 3.12 ± 0.055 | 2.9 ± 0.046 | 3.13 ± 0.033 | 3.15 ± 0.033 |
| TNSHLPAGKQVEISLVN [FAS1] | 3.48 ± 0.14 | 3.37 ± 0.13 | 3.36 ± 0.069 | 3.12 ± 0.084 |
| TNSTYNPASATDNMSGR [YJL039C/NUP192] | 2.71 ± 0.058 | 2.73 ± 0.063 | 2.47 ± 0.054 | 2.56 ± 0.052 |
| TNVEDPLAKKQTVRLIK [SIR2] | 2.82 ± 0.077 | 3.08 ± 0.067 | 2.77 ± 0.056 | 2.96 ± 0.06 |
